# Results: the supplement of paper PMC12636428
# Tested on: Saccharomyces cerevisiae
# Test: transcriptional activation domain activity (GFP:mCherry ratio, weighted mean of sorted bins, harmonized to initial dataset scale) (arbitrary fluorescence ratio units); higher = stronger transcriptional activation
# Details: beta-estradiol 1 µM; induction time 4 h
# Procedure, shortened: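 For this assay, yeast diploids with a GFP reporter carried barcoded protein tiles at URA3, each fused to an estradiol-inducible synthetic transcription factor. Induction was a 1:5 dilution into SC with 1 uM beta-estradiol for 4 hours at 30 °C, followed by sorting into 8 bins by GFP:mCherry ratio and barcode sequencing. Tiles under 50 reads were dropped, and activation activity was calculated as the read-weighted mean of bin median fluorescence, averaged across barcodes and linearly mapped onto the initial dataset scale.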
row,Sequence,transcriptional activation domain activity
1,ADEEGEGEAEEKPKRKRATKKKVEEEDDEEEEEEEKPKPKARAKAGSSKKAAT,21100
2,LLAVDPNVWSHFDIVVLEFSRHYIHFHWKSLLWLVGPVVVWGWMVCTLLVWFI,49400
3,PSGIIVLVICTLGLLCCTIMIILIFYFRYFKPIMSSSPIFCYLQLVGISMAYI,46000
4,AREGARIRIVNRTVTVGKRTMSARSEVYDADNSRLVASGSHSKMTGSQPETRL,17700
5,EHSTTGDSWFLGLVLCYPLRSYGYFMLFFIWLRLFLVLAFQFLLYACNYLFIL,62200
6,KLGAAGGGRGSERDKRRRGEGERGGGDAVARAGEGEGRGRGRRRRKRSAACAG,39200
7,RPSSPPRRPPPSSPSPAPPSKSPATCRSKTSPWGHGRCRPRPPARAPASGTAP,45200
8,DGCIFFALITFALMLRIATAFCMRGPIHAIFLPWSIVCYYYAGSHLLLNLRWY,46300
9,MLILLLLLLLLLLLLLLLIMIMIMILMIFLLLFMILIFLLVIMREFCWLWVLW,44900
10,KKKKRKKKTPSKGESEEKGDDEDDEDEKKQTPKANTGAKKTKATGKTDREKKE,51500
11,GEIAQLWDFNVDQFNMTPSNSSGSATISAPNSFTSDIPQYNHGSLGNSVSKSS,48300
12,LCPLFPPCFLVLHHILGFLYPRFFLFVFSLVDCLLYFSLSFLVCVRFCLCLGL,78000
13,EEDEETSHEVRSKVYKLVKKSDGNQEWNDMGVETGSRRVLLRNSSTGKIVINF,25400
14,LPTSFLEYCFRLICLWKPHLIREYFKEWFIFPNVVGWKYILQTFFNILEHVHD,46600
15,GLANYLKPVHDQKLIIFIEILILLWAVLVYSTVQVARGATGFYLPTVLYNIYL,49300
16,MSGIFSLSHLLVFRFFFFSIMRFLLVFLYFLFLTITIPHSLSLSLHLFHLFVS,52600
17,MDNKSSKSPGNIPKHRACDECRSRKLACSKEPDGCARCKRERIKCHYSPQKPM,34700
18,VGAVMVRGQDYVPAFDVAPDWESYDYAKLDPTNDDDKEFINNMWAWDKPVSVN,57300
19,DQPLNEILGFLLSWLLMFDHFNEITFKLKQEYTTQLKDGDLISLLLPVLFNIL,41100
20,MALFRALPLKIRNLIYLKLLNVSPLWISPIWIITDYYKERPIPLLKGLSLFLV,45400
21,LRAYPVPQALQIAGNESVSPCLVRCLRLLTVLADLLYMHRGFFARALNDHPKD,46700

row,Sequence,transcriptional activation domain activity
1,GGETEGESPEAPVPGGETPSEGGETETPSEGGETEGESPETPVPGGETPSEGG,16800
2,NFMNNEITASKIDDGNNSKPLSPGWTDQTAYNAFGITTGMFNTTTMDDVYNYL,120000
3,FFHVTIRVASQGCGIGFAILGFGNLGLFLAFLILGAEGYFSLVLCTFRFVISW,78100
4,VLLHLNRYMSIFGNLQILILVGLTSCCRTSHIYHMVLLLVQQHTLHRRYVLHA,69400
5,EVMKVTPVQKQTRAGQRTRFKAFVAIGDYDGHVGLGVKCAKEVASAIRGAIIL,48700
6,MPLFCSISPSFHESVHFWFFFFFFLSLTLFPSFRLVSYFCTFFLFLNWVNRGF,44800
7,GLLKIVVILPVTDVPLPPYRVTPMFLGGMRDLVTHLLRRTSTILTCDRLWYLW,28400
8,CKRCSTLTCVGCGSRPLEKKLATEINVQGTKLTWCCSRGRLFVIWAILCGFDQ,43900
9,QVLVLLLILLVFLVFQFLQMLSFLLKLPFVLKLEILLVLLVTKLWVFLFHLLL,41500
10,MTEQAPTIRTAEKDTEGPAKRRRRPALSCVECRSRKVRCDRGKPCRACTRVRS,26200
11,FFLRIAVEVLHIRIIWAIILVNVLFGFSYFMCAVLQCVPIPYIWKKYAANPPP,43200
12,EVKAESKPESKVEPKTEAKPEPKAEPKSEPKVEPKKSESSKKNKKKKAKKAAA,33700
13,MKELSFFPISISIQRYSHIRWVLLHCTNYLISFVYHCYVIILSVFFFLYIFTA,76900
14,MDESDGERGGGYGVFFLLFFFFFFLSFLFSFWLFLLFTFVLISFFGAITLLKE,25600
15,VADVMLQRSTLVIGYCLVITIICCSVFLLYSMDFLSSCISFIWIGMVTLMICL,41500
16,KGAPKKSKGEEKEEVVAEETKVEVKVVKETKKVDKAAKAETKKDEVKKVKKVE,46000
17,HFVELSTILGIIILHSPAICLQVVLLLFCGLHSVVVALMLDRVPPLIYLAFFV,66100
18,MLVRLFFCCYCCCLPVCLSVCLLHVVRCVMLLLTLMLFALLLRTCATLFFLFF,61400
19,KGGGAGGGKRAKKEESSDDEAAKPLAKRGKGTANGRANGKARASSAAPVDNQK,44600
20,AFEVSGKGRSRTREKVTLDLEELAGGAIDMSKSDLEHLVIHLFIKSYLRMSFV,43100
21,MYYDKRSAMLQGLLLMGPRACGFHWSCILAILGLATLVSVDLVQLSYHLPRAV,32700

row,Sequence,transcriptional activation domain activity
1,VCVCVWELVLVLVVWCCHCFSFVHSLHFLPWLLFSSPLVFLFPFPFFFFCLFL,68600
2,EGAASGTEEAPKPKKKKKQQPRKSKPRIDAASGTEAEPNAATESEAPAAAGAA,16600
3,KLRHRLEDEKEANFFRAIIHFTGLRLPQARSKPVNVVRGILLVLCQLVQFSGR,57100
4,IYCAGWVFRYFFLFPYRLSLLLAATLFFFLALPIVLYFKNDEWQRWLFRFYCQ,57500
5,GVEGQGKRTRAGKKRRIVLRERQRKRVKEEEERKKKGEEKEGREREKRVRRNR,46700
6,MHFVWLYHPFAKYGDFYLILSFTYLRTITDCCSCCIMTTYGMLRIFPIFVILV,79100
7,ISCAVSACIVCVINCAVTVWASVNNKANKGVLFEGDCEKVRQMNTGLHLLINL,66400
8,RHLGSLAYLGNTAVGEFGWGYKMIGGLYAQYLWRSVYWSKQVSLRTRINLSID,54500
9,KGKGRRRGRGRGRGRGRGREGKGKGREGEGKGKGKEKGKGKGKGKGKGKGKGR,28000
10,KDGKQRRTREAAGSGHARRRRRGDRERRKGQPRAGRPGAKAKGKAGGTGAKQE,15700
11,DDDKKETGAFTHQWILLAKSRASHILLCITYFYASVLAVVSVGSVNWRNVAVK,63000
12,VKWAKETRGEQRKRLHIVPVGIVYTNKSQYQSRVSSRVHICVHVEAFVQERTS,52100
13,GRRRDNGGRRQGGGRRDGGGGGGGGGGRGRGERGGGGGERGERGGGARPKKTQ,34900
14,RDVYYILHWVVAFTLVRATVMYKMLEPFIKWYGVRSQHKIMRFGEQGWLTIYY,59800
15,VLVVVVALPVVAVMVIMVVVVVVVVVVAIIGGGGWWMWLGLWLRLLIEMDVGA,32900
16,YILRLFRDYVFFQVDANGKRTFDLGHMMECLLRMDCGSDELICLTSSDEKNVI,49100
17,NLLARRPFFVFWFMGQIHRSLTLFHCDPTLLVALDVCKSLIPAINYLTLLWPC,70900
18,IRSWGDAVLAHSPLFDHVDGDAACPCSRCCSGVIAWSFWERVIRIVPMHLFSA,64500
19,TEVQNYPHALDLITDNLDDDFQDELRGSLDVQARLLYGLIHARWIVTARGLSK,40200
20,MGGAGDKVLICNCSSTDSFLRMFLLILVFFLIILLVCMDWSLRFLMMFVFLLV,19800
21,NGGLSELKERLDEGRASYAYVKVTYSNDKESTREKFILVIWIGSSCKVMRKAK,42900

row,Sequence,transcriptional activation domain activity
1,EVLLLLMWMFWTKVVKIIPHFLRHPSDFPLVICQILFGYAHSFIKLWALVTFW,47200
2,IGGFLGCLLMGHICLIILVFLCQTLVYREVTRLFTLMDSKPTLNWYFFATANY,53000
3,GFVGENSASASVVEVLLRTGGFSTRSLRRRLLETFQLVLEVTHSLAFIKPGGK,53300
4,GEGSAEDGGGSSEPRRLRRSHEACSRCRGKKIKCDSKHPRCTACATANTQCTQ,25100
5,DPIRYLSTMDLGYCVGDKIIGSVLCYKQPIVLLILMYFTDQILFFLDTYLWYI,40600
6,LLQSLKRTTEIPVKDAFLGLLRADACFCIYRMLRCTNVNLPICRLTGLLDVIR,61400
7,PFPLLPFPLLPFPLLPSPLPIPLLPIPLLSFPLLPFPFLPFPLLSYPLFHFTV,44800
8,LDAVSSFNSSSVKSNFASKVNTQLNLLQHSSSNSNFLDASPYDFNKIFMNNFE,62000
9,TEQSVFVGLLLYRLKYPANLVSLVLKLSAVQSTLFKVVFAVYLLVWWGIKQAR,63100
10,EEEERKQNEKRERAEERRKEKLEEEKEKREKDRKETEKKGGKGKGEQGKGKEK,17200
11,NIQSFDAIYFAALQVIIVSSANGWSPLMYQMMDSEFFVSCVFFIICIVVLNFW,61500
12,ATIIFVFTASICGYNFNFDWVFSYKLVEFENTLGWTLFCLWLFDALLCVLFMT,52700
13,NSSEEEDRNRRERKRKREKEREKKKESRRHRSRSRRSKEVEDDDEKDRKRHRR,14500
14,MKLVRFLMKLNNETVTIELKNGSVIHGTITSVDPQMNTHLKSVKLSLRTAAPG,24700
15,EAWILHMVVILGVNYLFTFYVWDFSYTDTELWNVTCYWKLGWLLPIPYTLICF,51000
16,METPEQPSAGRRRPHRKSRTGCAECRRRRIKCDEVKPACTACVRHDHPCVYPS,22000
17,YFVLLPPTFILLAFPLLVWEFCWLSSSDFLCLLSMGFLFISLSFFFFFFLGNW,40400
18,SYFIAAIINWEMSGFFLFSYEYVHKDLNLGCSNLYFTWYALFKEYGAPLVPMS,45100
19,GSERRERRSERRRSRDRSGERRRSKREEGSSRRPQSPEDEDRQQRRHRRHRHR,16500
20,VRRVLLMVPDWFIIFGYRWYRALGLLKTVCPWWTSIINSSSVFYSMLWVDPSV,90900
